Source: the supplement of paper PMC9233669
Fewer inactive variants are shown than the library holds.

What was measured:
biotinyl-Phe-oxazolone = experiment: self-aminoacylation, catalytic enhancement (BFO) (fold over background); higher = more active; k-Seq, kA / k0A0; sequences stand for … in GGGAAUGGAUCCACAUCUACGAAUUC…UUCACUGCAGACUUGACGAAGCUG
Procedure, shortened: (§1)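 Mutagenized RNA pools with a 21-nt variable region (0.43 μM) were reacted with each biotinyl-aminoacyl-oxazolone at 2–1250 μM for 90 minutes at room temperature, in 50 μL HEPES/NaCl/KCl/MgCl2/CaCl2 buffer containing 5% acetonitrile at pH 6.9–7.0. RNA captured on streptavidin was quantified by triplicate qPCR and by Illumina sequencing. The fraction reacted for each sequence was fit to a pseudo-first-order model with bootstrapping, and catalytic enhancement is the median kA divided by the uncatalyzed rate, taken as the low-activity peak of a bimodal Gaussian fit.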

biotinyl-Ile-oxazolone = experiment: self-aminoacylation, catalytic enhancement (BIO) (fold over background); higher = more active; k-Seq, kA / k0A0; sequences stand for … in GGGAAUGGAUCCACAUCUACGAAUUC…UUCACUGCAGACUUGACGAAGCUG
Procedure, shortened: as §1

biotinyl-Met-oxazolone = experiment: self-aminoacylation, catalytic enhancement (BMO) (fold over background); higher = more active; k-Seq, kA / k0A0; sequences stand for … in GGGAAUGGAUCCACAUCUACGAAUUC…UUCACUGCAGACUUGACGAAGCUG
Procedure, shortened: as §1

biotinyl-Val-oxazolone = experiment: self-aminoacylation, catalytic enhancement (BVO) (fold over background); higher = more active; k-Seq, kA / k0A0; sequences stand for … in GGGAAUGGAUCCACAUCUACGAAUUC…UUCACUGCAGACUUGACGAAGCUG
Procedure, shortened: as §1

biotinyl-Leu-oxazolone = experiment: self-aminoacylation, catalytic enhancement (BLO) (fold over background); higher = more active; k-Seq, kA / k0A0; sequences stand for … in GGGAAUGGAUCCACAUCUACGAAUUC…UUCACUGCAGACUUGACGAAGCUG
Procedure, shortened: as §1

biotinyl-Trp-oxazolone = experiment: self-aminoacylation, catalytic enhancement (BWO) (fold over background); higher = more active; k-Seq, kA / k0A0; sequences stand for … in GGGAAUGGAUCCACAUCUACGAAUUC…UUCACUGCAGACUUGACGAAGCUG
Procedure, shortened: as §1

Sequence | self-aminoacylation (biotinyl-Phe-oxazolone) | self-aminoacylation (biotinyl-Ile-oxazolone) | self-aminoacylation (biotinyl-Met-oxazolone) | self-aminoacylation (biotinyl-Val-oxazolone) | self-aminoacylation (biotinyl-Leu-oxazolone) | self-aminoacylation (biotinyl-Trp-oxazolone)
CCACAAUUAAAGCAAUCGGUC [Fam1B.1 aminoacylation ribozyme variant] | 0.833 | 1.13 | 0.88 | 1.13 | 0.881 | 0.66
AAAUUUGCUAAUAGUCGCAAA [Fam3.1 aminoacylation ribozyme variant] | 2.95 | 3.32 | 3.08 | 2.41 | 3.17 | 3.82
AUUGACCUAGGUUAUCGGGUG [Fam2.2 aminoacylation ribozyme variant] | 29.1 | 4.71 | 4.96 | 4.7 | 5.36 | 6.6
CGACUUCAAACAAUCGGUCGG [Fam1A.1 aminoacylation ribozyme variant] | 9.34 | 2.47 | 1.99 | 2.08 | 2.68 | 5.43
AUUAACCUAUGUCAUCGGGUG [Fam2.2 aminoacylation ribozyme variant] | 36 | 3.43 | 5.3 | 3.13 | 6.82 | 5.05
AUUCACAUAGGUCAUUGGGUG [Fam2.2 aminoacylation ribozyme variant] | 29.1 | 2.74 | 4.35 | 3.23 | 5.11 | 4.51
AUUCACCUAGGUCAUGCGGUG [Fam2.2 aminoacylation ribozyme variant] | 33.8 | 4.12 | 4.77 | 4.13 | 6.55 | 5.3
AAUGCCCUGGUCAUCGAGUGA [Fam2.1 aminoacylation ribozyme variant] | 33.9 | 4.61 | 9.57 | 5.85 | 9.96 | 11.8
GUUACUCUGGUCAUCGAGUGA [Fam2.1 aminoacylation ribozyme variant] | 32.9 | 4.98 | 6.92 | 4.18 | 7.08 | 9.78
UCACACUUCACGCAAUCGGUC [Fam1B.1 aminoacylation ribozyme variant] | 0.767 | 1.03 | 0.81 | 1.21 | 0.873 | 0.908
AUUACACUGGUCAUCGCGUGA [Fam2.1 aminoacylation ribozyme variant] | 102 | 6.84 | 12.6 | 7.07 | 14.4 | 14.6
AGUCACCUAGGUCAGCGGGUG [Fam2.2 aminoacylation ribozyme variant] | 39.5 | 4.2 | 4.31 | 3.77 | 5.54 | 5.59
CUACUUGGAACAAUCGGUCUG [Fam1A.1 aminoacylation ribozyme variant] | 0.848 | 0.831 | 0.904 | 0.833 | 0.788 | 0.642
CGACUUCUAACAAUCGGUCUG [Fam1A.1 aminoacylation ribozyme variant] | 0.961 | 0.905 | 0.936 | 0.931 | 0.917 | 0.591
CUACACCUCAAGCAAUCGGUC [Fam1B.1 aminoacylation ribozyme variant] | 2.14 | 1.01 | 0.869 | 0.976 | 0.8 | 1.41
AUUCUCCUAGGUCACCGGGUG [Fam2.2 aminoacylation ribozyme variant] | 39.8 | 5.47 | 7.25 | 5.85 | 10.2 | 7.7
AAGUUUGCUAAUAGUCGCAGC [Fam3.1 aminoacylation ribozyme variant] | 1.11 | 1.17 | 0.956 | 0.913 | 0.821 | 1.99
AUUCACUUAGGUCAUCUGGUG [Fam2.2 aminoacylation ribozyme variant] | 12.6 | 2.06 | 3.11 | 2.1 | 3.65 | 3.19
GUUCACCGAGGUCAUCGGGUG [Fam2.2 aminoacylation ribozyme variant] | 55.9 | 4.56 | 6.57 | 4.56 | 8.58 | 7.43
AUUCACCUAAGUCAUCUGGUG [Fam2.2 aminoacylation ribozyme variant] | 16.6 | 2 | 2.52 | 1.86 | 3.72 | 2.98
AAGUUUGCUAAUAGUCGGAAG [Fam3.1 aminoacylation ribozyme variant] | 14.8 | 1.13 | 1.16 | 1.03 | 0.934 | 4.58

Sequence | self-aminoacylation (biotinyl-Phe-oxazolone) | self-aminoacylation (biotinyl-Ile-oxazolone) | self-aminoacylation (biotinyl-Met-oxazolone) | self-aminoacylation (biotinyl-Val-oxazolone) | self-aminoacylation (biotinyl-Leu-oxazolone) | self-aminoacylation (biotinyl-Trp-oxazolone)
AAUCACCUAGGUCGUCGGGUG [Fam2.2 aminoacylation ribozyme variant] | 7.97 | 2.12 | 2.21 | 2.19 | 3.25 | 1.34
CCACACUGCAGGCAAUCGGUC [Fam1B.1 aminoacylation ribozyme variant] | 5.92 | 1.44 | 1.76 | 2.17 | 1.57 | 1.38
GUUCACCUAGGUCAUCGCGUG [Fam2.2 aminoacylation ribozyme variant] | 96.1 | 6.72 | 10.5 | 6.96 | 15 | 10.6
AAGUUUGCUUAUAGUGGCAAG [Fam3.1 aminoacylation ribozyme variant] | 1.38 | 0.789 | 0.861 | 0.711 | 0.644 | 0.94
AUUACCCUGGUCCCCGAGUGA [Fam2.1 aminoacylation ribozyme variant] | 113 | 6.57 | 15.2 | 8.55 | 15.6 | 17.3
AAGUUCGCUAAUAGUCGCAAG [Fam3.1 aminoacylation ribozyme variant] | 6.36 | 2.04 | 1.91 | 1.81 | 1.94 | 2.94
AUUACCCUGGCCAUCGAGAGA [Fam2.1 aminoacylation ribozyme variant] | 0.439 | 0.69 | 1.02 | 1.01 | 0.919 | 0.803
CCACACUUCAAGCGAUCAGUC [Fam1B.1 aminoacylation ribozyme variant] | 1.37 | 0.884 | 0.699 | 0.776 | 0.665 | 0.843
AUUCACCUAGGUCAUCCGCUG [Fam2.2 aminoacylation ribozyme variant] | 9.5 | 2.23 | 1.73 | 1.89 | 2.54 | 1.25
AUUACUCUGGUCAUCUAGUGA [Fam2.1 aminoacylation ribozyme variant] | 42.8 | 4.55 | 9.64 | 4.34 | 9.74 | 11.4
GCACACUUCAAGCAAUCCGUC [Fam1B.1 aminoacylation ribozyme variant] | 1.76 | 1.66 | 1.2 | 1.98 | 1.71 | 2.01
GUACUUCAACCAAUCGGUCUG [Fam1A.1 aminoacylation ribozyme variant] | 16.5 | 1.39 | 1.39 | 1.28 | 1.59 | 15.1
AAGUUUGCUAAUAGUCGCCAG [Fam3.1 aminoacylation ribozyme variant] | 1.41 | 1.02 | 1.03 | 0.997 | 0.962 | 1.39
ACUACGCUGGUCAUCGAGUGA [Fam2.1 aminoacylation ribozyme variant] | 35.1 | 4.74 | 5.77 | 4.04 | 5.5 | 7.58
CCACACUUCGAGCAUUCGGUC [Fam1B.1 aminoacylation ribozyme variant] | 1.18 | 1.97 | 1.67 | 2.2 | 1.72 | 1.54
AAGUCUGGUAAUAGUCGCAAG [Fam3.1 aminoacylation ribozyme variant] | 2.18 | 1.17 | 1.16 | 0.918 | 0.903 | 0.868
AUUACCCUGGUAAUUGAGUGA [Fam2.1 aminoacylation ribozyme variant] | 117 | 6.96 | 16.2 | 6.33 | 17.1 | 19.2
CUACUUCAAACAACCAGUCUG [Fam1A.1 aminoacylation ribozyme variant] | 0.953 | 1.02 | 0.899 | 0.797 | 0.668 | 0.573
CCACACUUCAAGCAAUCCCUC [Fam1B.1 aminoacylation ribozyme variant] | 0.896 | 1.04 | 0.846 | 1.15 | 0.729 | 1.35
AAGUUUGCUAGUAGUCGCAGG [Fam3.1 aminoacylation ribozyme variant] | 2.48 | 0.89 | 1.02 | 0.799 | 0.956 | 1.05
CCACACUUCAAGCGAUCGGAC [Fam1B.1 aminoacylation ribozyme variant] | 0.588 | 1.22 | 1.33 | 1.27 | 1.26 | 1.36
